Reference: patent US7183376
One block for each binder: values may come before it.

Biological target: soluble CD28-Ig Fc fusion protein (extracellular domain of human CD28 and Fc portion of human IgG1; R&D Systems) (human), P10747
Assay: competitive FACS on transfected 293 cells; competitor sCTLA-4-Ig; score 0/1/2 = CD28/CTLA-4 binding ratio like / greater / significantly greater than WT hB7-1

Binding Score: 1
B1: Round 2 CD28A4-9 (ligand)
chain: ITPKSVTKRVKETVMLSCDYNTSTEKLTSLRIYWQKDSKMVLAILPGKVQVWPEYKNRTITDMNDNPRIVILALRLSDSGTYTCVIQKPVLKGAYKLEHLTSVRLMIRADFPVPTINDLGNPSPNIRRLICSTSGGFPRPHLYWLENGEELNATNTTVSQDPETKLYMISSELDFNVTNNHSIVCLIKYGELSVSQIFPWSKPKQEPPIDQLPFWVIIPVSGALVLTAVVLYCPACRHVARWKRTRRNEETVGTERLSPIYLGSAQSRAEVPSLSX
modifications: not fully specified; X: residue not identified in the source; ends and bridges not checked

Binding Score: 1
B2: Round 2 CD28A12-5 (ligand)
chain: ITPKSVTKRVKETVMLSCDYNTSTEELTSLRIYWRKDSKMXLAILPGKVQVWPEYKNRTITDMNDNLRIVILALRLSDSGTYTCVIQKPDLKGAYKLEHLTSVRLMIRADFPVPTINDLGNPSPNIRRLICSTSGGFPRPHLYWLENGEELNATNTTVSQDPGTELYMISSELDFNVTNNHSIVCLIKYGELLVSQIFPWSKPKQEPPIDQLPFWVIIPVSGALVLTAVVLYCLACRHVARWKRTRRNEETVGTERLSPIYLGSAQSSG
modifications: not fully specified; X: residue not identified in the source; ends and bridges not checked; also: glycosylated membrane protein, sites not given here
